14 molecules from article PMC314469, “Protein Interaction Networks by Proteome Peptide Scanning” (PLoS Biology, 2004) can be followed below.

What all share (assay): SPOT array
Experiment [1] has as its target T1, Yfr024 SH3 (LSB3_YEAST), P43603.
T1 chain: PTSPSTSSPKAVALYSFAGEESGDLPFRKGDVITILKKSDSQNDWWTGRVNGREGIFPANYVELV

For experiment [2], the target named is T2, Myo5 SH3 (MYO5_YEAST), Q04439.
T2 chain: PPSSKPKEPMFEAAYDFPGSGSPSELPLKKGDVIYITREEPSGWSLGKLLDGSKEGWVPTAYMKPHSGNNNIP

The target of experiment [3] is Sho1 SH3 (SHO1_YEAST), P40073.
In experiment [4] the target is T3, Yhr016c SH3 (YSC84_YEAST), P32793.
T3 chain: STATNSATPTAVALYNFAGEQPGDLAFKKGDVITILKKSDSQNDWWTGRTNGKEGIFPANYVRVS

Experiment [5] addresses T4, Boi2 SH3 (BOI2_YEAST), P39969.
T4 chain: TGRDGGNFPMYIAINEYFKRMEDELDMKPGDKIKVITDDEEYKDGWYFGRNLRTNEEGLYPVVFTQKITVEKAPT

The target of experiment [6] is T5, Boi1 SH3 (BOI1_YEAST), P38041.
T5 chain: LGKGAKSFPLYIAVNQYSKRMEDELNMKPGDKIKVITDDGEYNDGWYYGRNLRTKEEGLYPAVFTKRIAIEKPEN

In experiment [7] the target is T6, Rvs167 SH3 (RV167_YEAST), P39743.
T6 chain: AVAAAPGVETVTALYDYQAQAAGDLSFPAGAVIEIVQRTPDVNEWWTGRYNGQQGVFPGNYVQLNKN

Sequence of Sho1 SH3 (SHO1_YEAST), P40073 (P40073 295-366): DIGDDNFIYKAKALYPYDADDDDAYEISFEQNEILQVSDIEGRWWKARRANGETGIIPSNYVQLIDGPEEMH

For KEFFRLTPNQPVGL [YOR168W 628-641], the normalised SPOT signal, Boehringer light units (BLU); mean over the file's lines of this peptide in experiment [1] was 166; in experiment [2], 43.8; in experiment [3], 25.9; in experiment [4], 14.9; in experiment [5], -0; in experiment [6], 136. Besides, the normalised SPOT signal, Boehringer light units (BLU); mean over the file's lines of this peptide in experiment [7] stood at 175.

Consider ITRARYMPQDPNIV [YEL056W 121-134], for which the normalised SPOT signal, Boehringer light units (BLU); mean over the file's lines of this peptide in experiment [1] amounted to 486; in experiment [2] it was 190; in experiment [3], 153; in experiment [4] it was 84.6; in experiment [5], 70.9; in experiment [6] it was 2220. Moreover, the normalised SPOT signal, Boehringer light units (BLU); mean over the file's lines of this peptide in experiment [7] amounted to 111.

Regarding KDEVKLHPPEPKDL [YIL009W 251-264], the normalised SPOT signal, Boehringer light units (BLU); mean over the file's lines of this peptide stood at 0 in experiment [1]; 164 in experiment [2]; 50.6 in experiment [3]; 18.9 in experiment [4]; 2.4 in experiment [5]; 102 in experiment [6]. In experiment [7], the normalised SPOT signal, Boehringer light units (BLU); mean over the file's lines of this peptide came to 32.3.

Take ISNRRPVPRRPSQP [YPR091C 658-671]: the normalised SPOT signal, Boehringer light units (BLU); mean over the file's lines of this peptide in experiment [1] was determined as 36800; in experiment [2], 377; in experiment [3], 129; in experiment [4] it was 17200; in experiment [5], 56.9; in experiment [6] it was 4610. The molecule also came in with a normalised SPOT signal, Boehringer light units (BLU); mean over the file's lines of this peptide in experiment [7] of 82100.

For KAALKYHPDKPTGD [YNL007C 28-41], the normalised SPOT signal, Boehringer light units (BLU); mean over the file's lines of this peptide in experiment [1] stood at 32.9; in experiment [2] it was 156; in experiment [3], 60.7; in experiment [4] it was 18.6; in experiment [5], 18.7; in experiment [6], 21.4. In experiment [7], the normalised SPOT signal, Boehringer light units (BLU); mean over the file's lines of this peptide was 84.8.

For the molecule KALPKRRPSPPLQS [YKR019C 209-222], the normalised SPOT signal, Boehringer light units (BLU); mean over the file's lines of this peptide in experiment [1] came out at 13400; in experiment [2], 1140; in experiment [3], 758; in experiment [4], 2190; in experiment [5], 30.5; in experiment [6], 1770. This molecule also registered a normalised SPOT signal, Boehringer light units (BLU); mean over the file's lines of this peptide in experiment [7] of 906.

Take KALWKIQPYLPEFS [YML130C 280-293]: the normalised SPOT signal, Boehringer light units (BLU); mean over the file's lines of this peptide in experiment [1] is 201; in experiment [2], 146; in experiment [3], 178; in experiment [4], 43; in experiment [5] it was 47.8; in experiment [6], 0. In addition, the normalised SPOT signal, Boehringer light units (BLU); mean over the file's lines of this peptide in experiment [7] was determined as 41.7.

On to ITSIRGSPSLPKNK [YKL071W 35-48], for which the normalised SPOT signal, Boehringer light units (BLU); mean over the file's lines of this peptide turned out to be 1400 in experiment [1]; 370 in experiment [2]; 111 in experiment [3]; 44.2 in experiment [4]; 31.5 in experiment [5]; 420 in experiment [6]. In addition, the normalised SPOT signal, Boehringer light units (BLU); mean over the file's lines of this peptide in experiment [7] came to 104.

In the case of ITAEKSAPTSPEVY [YMR219W 1471-1484], the normalised SPOT signal, Boehringer light units (BLU); mean over the file's lines of this peptide in experiment [1] was found to be 63.9; in experiment [2] it was 94.2; in experiment [3] it was 116; in experiment [4], 71.1; in experiment [5] it was 0; in experiment [6] it was 92.4. The molecule also registered a normalised SPOT signal, Boehringer light units (BLU); mean over the file's lines of this peptide in experiment [7] of 3.5.

In the case of IYHSKKQPLVPIGS [YML030W 25-38], the normalised SPOT signal, Boehringer light units (BLU); mean over the file's lines of this peptide in experiment [1] is 189; in experiment [2], 294; in experiment [3] it was 144; in experiment [4] it was 86.8; in experiment [5], 21; in experiment [6] it was 182. The normalised SPOT signal, Boehringer light units (BLU); mean over the file's lines of this peptide in experiment [7] turned out to be 160.

Consider IVNEKRTPALPSNL [YOR191W 260-273], for which the normalised SPOT signal, Boehringer light units (BLU); mean over the file's lines of this peptide is 74.4 in experiment [1]; 102 in experiment [2]; 86.8 in experiment [3]; 11.6 in experiment [4]; 20.9 in experiment [5]; 73.8 in experiment [6]. In experiment [7], this molecule yielded a normalised SPOT signal, Boehringer light units (BLU); mean over the file's lines of this peptide of 51.5.

ITDTKLFPGNPNLM [YFR029W 524-537]: the normalised SPOT signal, Boehringer light units (BLU); mean over the file's lines of this peptide is 28.7 in experiment [1]; 94.6 in experiment [2]; 43.8 in experiment [3]; 15.4 in experiment [4]; 2.3 in experiment [5]; 113 in experiment [6]. This molecule also returned a normalised SPOT signal, Boehringer light units (BLU); mean over the file's lines of this peptide in experiment [7] of 67.4.

Regarding KDKARGNPEKPPYW [YJL036W 14-27], the normalised SPOT signal, Boehringer light units (BLU); mean over the file's lines of this peptide worked out at 63.5 in experiment [1]; 59.9 in experiment [2]; 50.3 in experiment [3]; 19.5 in experiment [4]; 15.2 in experiment [5]; 247 in experiment [6]. The same molecule gave a normalised SPOT signal, Boehringer light units (BLU); mean over the file's lines of this peptide in experiment [7] of 67.1.

On to KDFSKNAPYNPSEV [YPR022C 111-124], for which the normalised SPOT signal, Boehringer light units (BLU); mean over the file's lines of this peptide in experiment [1] stood at 0; in experiment [2] it was 143; in experiment [3], 42; in experiment [4] it was 59.1; in experiment [5], 53.8; in experiment [6] it was 76.6. Also, the normalised SPOT signal, Boehringer light units (BLU); mean over the file's lines of this peptide in experiment [7] stood at 63.7.
